Assay: label from the status in PepcDB records
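Note: failed if final PepcDB status was selected cloned or expressed and not failed if soluble or beyond.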

Sequence | protein production
MTTVRTRIAPSPTGDPHVGTAYIALFNLCFARQHGGQFILRIEDTDQLRSTRESEQQIYDALRWLGIEWDEGPDVGGPHGPYRQSERGHIYKKYSDELVEKGHAFTCFCTPERLDAVRAEQMARKETPRYDGHCMHLPKDEVQRRLAAGESHVTRMKVPTEGVCVVPDMLRGDVEIPWDRMDMQVLMKADGLPTYFLANVVDDHLMGITHVLRGEEWLPSAPKLIKLYEYFGWEQPQLCYMPLLRNPDKSKLSKRKNPTSITFYERMGYLPQALLNYLGRMGWSMPDEREKFTLAEMIEHFDLSRVSLGGPIFDLEKLSWLNGQWIREQSVEEFAREVQKWALNPEYLMKIAPHVQGRVENFSQIAPLAGFFFSGGVPLDASLFEHKKLDPTQVRQVLQLVLWKLESLRQWEKERITGCIQAVAEHLQLKLRDVMPLMFPAITGHASSVSVLDAMEILGADLSRYRLRQALELLGGASKKETKEWEKIRDAIPG | failed
MTVAIPDLRVCANLTGKTLLICVGAAKCATSWLHDYLGSRPEVTVSPLKELHFFDSKFPEHALGDADGLALARLSFQLGQAGDAVANLRHRAIFQASLDRAQMIYDDNAYFGHFARLCGPQTRCFCDLTPSYSAIGAEGFAYMKRFCASQDIEVKILFLMRDPVRRFWSQLRHLQQMNPVNDVASKWRHALTAPALLARADYRGIVLALEQVFPSANLLCLFYESLFEGDDAIRRLCRFIGIPFAPAATGQRHNETTVRLPLSDDARDAFRHLLAPQYDFCRERFGRSIPGSWLA | failed
MTVAVIGAHGGIGRRLLPRLNEAGHDPIGVVRSEDQFAAIRDRGAEPRLGDLEGEVASALDGADAVVFTAGAGGSTGWDKTILVDLWGAERAVHACEEKEIDRFVMVSSRGAGDPESRQGPIKPYIVAKHVADRTLQRSSLDETILRPTRLTDAEGTGRVAAYVDTDPDAGDPIPRADVAQAVVQCLADDNTVGHAITLYGGDTPIGEALRPSGLEHHHHHH | failed
MTVAYIAIGSNLASPLEQVNAALKALGDIPESHILTVSSFYRTPPLGPQDQPDYLNAAVALETSLAPEELLNHTQRIELQQGRVRKAERWGPRTLDLDIMLFGNEVINTERLTVPHYDMKNRGFMLWPLFEIAPELVFPDGEMLRQILHTRAFDKLNKW | failed
MTVEQNVLQQSAAQKHQQTFLNQLREITGINDAQILQQALKDSNGNLELAVAFLTAKNAKTPPQEET | not failed
MTVSQDILLTDHFKQWIEIFKKGKVSDGTYRKYLYTLSVLKKHFSTATIKTMNRVKYQEMLNEFAEGHSDSSVKQINVHVRASLENLLDDFIIKNDFTKGLEHHHHHH | failed
MTVTDHILPTATNGRPPGLIIAAPSTNSGKTTVTLALHAALRRRSLTVQPYKCGPDYIDPAFHEIAAGRPCYNLDSWAFGQDRITYLLDAAAGADLCLAEGVMGLFDGGSARGAWGNGATADIAAFTGWPVVLVIDVAGQAQSAAALALGFARYRSDVRIAGVILNNVASARHEALVRDGFAAQDIPVLGGFERQRDLTLKNRHLGLVQARETARLDIRLQQLADSAVRGIDLDALIRAAQPARPIASTIRPLTPPGQRIALAHDDAFSFIYPHLTAGWRAAGAEIVPFSPLNDEGPDPSCDAAWLPGGYPELHAGRLAAATRFKAALGAFAETRAVHGECGGYMTLGAGLIDADGTRHAMAGLLGLETDFASRKLHLGYRLATLHADAAGKAAGSVLRGHEYHYARVVTVADEPLAEIRDPAGQLTDETGSRRGHVTGTFFHLIDVAEEAIALEHHHHHH | failed
MTVVVERQISHPPEKLWRALTQPHLIEEWLMKNDFKPAVGHRFNISADWGGVLDCEVLAVEPNKTLSYTWNLAHQDPAFDLRSVVTFTLTPTPTGTHLRMEQSGFRPDQRRAYGGAKMGWPQFFEKLEQLLDRTDLEHHHHHH | not failed
MTVVWINGAFGAGKTTTARELIELIPNSTLFDPEVVGGALAHLLPPKRLAEVGDFQDLPIWRRLVIDTAAALLADLGGTLVVPMTLLRQEYRDEIFGGLAARRIEVRHILLAPAETILRERIASREVPRDLPDGELRTRQWSYDHIEPYRAALASWLTADAHPVDTGALTPYEAAARVAEAVGSGAVPACEIVQTPEPTGETVAAGVLLFDERDRVLLVDPTYKPGWEFPGGVVEPGEAPARAGMREVAEETGLSLRDVPALLVVDWEPPAPPAYGGLRLLFDGGRLDAADAGRVLLPGPELRDWRFATEDEAAGLLPPVRYERLRWALRARERGAAHYLEAGTPVGLEHHHHHH | failed
MTVWDRPEPPHRPVPLDRERIVAAAVALADEGGLTAVSVRKVAARLDAGPMRLYGFISTKDELFDLMVDAVYAEILPEERAGDWREALRVLAHRTRQAALRHPWLADLLGGRPALGPNGLAVAEATLAALDGLADVDTVMRAVETVSSYFTGAVRREIADLRAERATGLSKPEWQREHGPHLTRMLATGRYPALAKAVHDGTHVDAEESFATGLDWVLDAVAVRLARPPGS | not failed
MTVWFVAAVAVLIIELLTGTVYLLVVSAALAGSGIAYGLTGSTPAAVLTAALLSALGIWFVHAKTAVGKVETDSYQDLDTGKYAEILRYTGGNRYEVFYRGTHWQAQNTGQEVFEPGTRALIVRKEGNLLIIANP | failed
MTWCSLSVISCTRFYSRQRTAMLNSLKQEKFLLLALLAAVAAYPLEHLLLGSGQGIALGAGLVLIGFIVMASMRVAHHAELLAEKVGDPYGTMILTLAAVLVEVVILAIMMSNEASPTLVRDTIYSAVMLDINGILGLAALMGGIKHGEQPYNDDSARTYSVMILTAMGVSMVVPEFIPEADWKVYSAFTIGAMVVLYTLFLRMQVGPHSYFFSYSYPEKRRNKEAQEQPHAINLAWSIGILVFGVVVIGALAEVMSKTLDLGLEGTGAPPVITAILVAAISAAPEILTALRAALANRMQSVVNVALGASLSTVILTVPVMEAMALYTGQPFQMAMTPVQTVMVFITLIVSAINLNDGETNAIEGMTHFVLFATFIMLSLLGL | failed
MTWLLFGAGNGVGGCLLQRAIECEQAVVLVLRNPEQAKHWREQGVTVVEGDACDPETVAEACRVAGPSAIVVSTMGGGTVNYQGHRTVIDGAEQAGIKRMLLVTSLGCGDSWPLLSPRARAAFGFAVREKSLAESWLQSSTLDHCIVRPGGLLDVVATHNAKLTQGAATLGLVSRSDVALAVDQLLQQPVFGNHIYNLIDPDLTMPAIPLEHHHHHH | failed
MTWPARRVLYAIWQDPWMTVSRATYISRMLALVNWATWPDDADTSDTPAACVDGDCSRPNAPGERYPTFRWSDALVRELDAVLLSTEPYRFTEDHADALERQIGKPVLLVDGEMLSWYGSRAVAGARYLRSLAQGFLEHHHHHH | failed
MTWQPFYVGTGQAPAGAEEQVVLPPAPPWREFPRRSQHRQFVPPPRLAEAVNAALALRRPLLVTGPAGSGKSTVIEQVAAELALGDVLRWHITSRSSLAEALYRYDALGRIHAQRLEGPGGSDDIAPFLRMGPLGTALLPSARPRALLIDEIDKSDLDLPSDLLDVLERGEFEIPELARYGTDVVPVREHGGERTHLIARGRVQCAEFPFIVMTSNGDRDFPAAFLRRCIRFTMPLPTPETLLRVVEAHMGPEKAAADETGRLITVFLERLTAGESLAVDQLLNAVHLLTGDGAPGDDRRQAIAELILRELSHALEHHHHHH | failed
MTWQQFKQQYLVRFWAPMPAVIAAGILSTYYFGLTGTFWAVTGEFTRWGGHLLQLVGANPETWGYFKVIGLQGSPLDRIDGMMIIGMFGGCIAAALWANNVKLRMPQSRIRIAQALIGGIIAGFGARLAMGCNLAAFFTGIPQFSLHAWFFALATAAGSYFGARFTLLPMFRIPVKLKKVDKASSVKQDENQARLRFRIGMLVFAAIIGWGLLTMFNAPKLGIAMLCGVGFGLLIERAQICFTSAFRDMWITGRTHMAKAIILGMAVSAIGIYSYVQLGVPPKIMWAGPNAVIGGLLFGFGIVLAGGCETGWMYRAVEGQVHFWWVGLGNVLGSTLLAYYWDDLAQPLATNWDKVNLLTSFGDKGGLLVTYLLLALSFAAMLLWEKRFFARKAKRDEQLIAEAA | failed
MTYLFVAAGGALGSTLRYWLSGLIAGAIGQSFPWGTLVINISGSIVIGAFATLTGPDGRVFIPGDWRQFFMVGVCGGYTTFSSFSLQTLTLAQEGQGLWAAANVVLSVVFCLIGVWLGHVGAVLINEGV | failed
MTYLQTTADFYAEVAQTPEVGLCCVQSSPLQLPGLVIPAVMQEMNYGCGSTVHPNELGNKSKVLYVGVGGGLEALQFAYFCRQPGAVIAVDPVEAMRQAAQRNLQLAAEKNDWFSVDFVDIRAGDAFTLPVPDNSVDVVAQNCLFNIFEPEDLSRALKEAYRVLKPHGRLIMSDPIAARPIPQHLRQDERLRAMCLSGALTYAEYIQHLIDTGFGQIEIRARRPYRLLDSVTYKLDENLLLESLDSVSFKVPIPSDGACVFTGKTAIYAGSDPLFDDQAGHILQQGVPSAVCDKTALNLGSTYPNKILITDSTWYYDGGGCC | failed
MTYQKIIDKINQQISQHVYLGASLALYDGQWQEFYLGETIPHHKTKAGLVYDLASVSKVVGVGTVIIFLLQANHLKLDEPLQAYYPNFHDSSVTIRQLLTHTSGIDPFIPNRNKLDFAALKQAINHIEVTKTKSFHYTDLNFILLGFLLEEFYDQSLDRIIKEHVLKPFGMEKTSFGPVKRAVPTGKTIPIGRVHDPKAQVLGIHTGSAGLFSNLEDLKCFVNHYLSDAFAKPLTQDFAYADKTRSLAWDLTGDWLFHTGYTGTFILLNIKKQSAAIFLSNRTYEKDERSQWILDRNDLIEVIKAALKKVSDSNCD | failed
MTYSFSKPVSWVFLFTAVIYLVSLSFIQYPATTVLKPIPIVCLIVGVFRTSLSSSAKILLILALVFSLAGDVVLTLPFSLQLELGIACFLLAHCFYITLFLKSFEFNRLHLFYYLPIFLFMGFAAFTMIPYLGNLLIPVMIYFCVLMLMVFSAFQVKKETLTISSGALFFLISDLTLALNLFIYTQADVRIFVMFTYYVAQFLLTFGLVRLYEKGG | failed
MTYVYRKNPVAAATVTVKYIDTQGNSISDSIPLSGNVDQEYTTEQKIISGYTFKEVQGNKSGLFSTTPQTVTYIYTKNPIEIKTGTVTIKYVDTNGNSISDEITKSGNVGSLYTSEQKKILGYNFKEIQGIAEGQFTIESQTVTYVYTKISTPTIIKTSVIPPKTLSVKTLPKESLPETGDKFFGFTLLSGSLLILVSTTLYLLKSRKYK | failed
MVADAAAAGSGGVGVCARWPRASAEGARMKLTPRVHDWYVGRVVLSTVLLTWAVLLGLDLVNAFASEAKDIGQGSYTFGHAVAYVAYTVPRRAYTLFPTAAVIGALMGLGQLAATSELTALRALGVSRKRMSASVVAAMALLTASMVISGETIGPWAQNQADTLKASARYNSDMAASLYAGLWAREGDTFLNALSGEEKLLDGGDTALDLHDVRLYHLDSSGRMQQLTYASVAEHRDGRWTLRQVRRDTFQERSVQRETFPELPWQSQLNPAALAAGLAKPRNLSAHDLEQSIEYRSRNGLDARDYEDQYWSRWFYPLNVLALCMAAIPFSFGSLRSGGLGKRLFLGILFALGFWLLQLFFGRMAGALKLDYRIAYALPPMVMLGVSAWLFRRRSS | failed
MVAKGLIRIVLDILKPHEPIIPEYAKYLSELRGVEGVNITLMEIDKETENIKVTIQGNDLDFDEITRAIESYGGSIHSVDEVVAGRTMVEEVTTPQD | failed
MVAQNSVVVIGASGFGRESLDVLEAMKEAGHSLEIIGVVDDNPAAINLQRLAERKIEYLGTLKEWIEGSPKSCKYVLAIGNPTIRHKLSALLDKSGFDAFTAVHPSAVIGSQVVFGSGAVVCSGAVISTNVRLGVHVHINPNVTIGHDSILEDYVSINPAATISGEVLIMEETLIGAAATVLQGLTIGNRSLVGASSCVTKDISAGKVVKGIPARLEHHHHHH | not failed
MVARDTTAPQVKIVNPVTGNVSGSNVPISVNASDDSGASGITYALYIDGVLKATGKGSTLGYNWNIRNVAAGAHTVQVVAKDAAGNSASSSLEHHHHHH | not failed

Reference: a protein production outcome set (Wang et al. 2014)
